Laboratory results from patent US20250134988A1 (WISTAR INSTITUTE OF ANATOMY AND BIOLOGY, published 2025).
Positions count from the first letter of the chain named. Like-named read-outs stand apart in the source and are kept apart here.

Legend:
CoV2_5P_HKU1FP = CoV2_5P_HKU1FP (SARS-CoV-2 spike with HKU1 fusion …, UniProt P0DTC2 14-1208); assay: ELISA AUC on 5P spikes with varying fusion peptides
off-target V5 peptide = molecular target: T1, off-target V5 peptide; assay: ELISA on fusion peptides
T1 construct: also called V5 tag
T1 peptide: GKPIPNPLLGLDST

[1] = molecular target: T2, CoV2_5P prefusion-stabilized spike protein (SARS-CoV-2, UniProt P0DTC2 14-1208); assay: ELISA
T2 construct: also called 5P trimer; wildtype 5P

CoV2_5P_OC43FP [2] = molecular target: T3, CoV2_5P_OC43FP (SARS-CoV-2 spike with OC43 fusion …, UniProt P0DTC2 14-1208); assay: ELISA, AUC
CoV2_5P_NL63FP [3] = molecular target: T4, CoV2_5P_NL63FP (SARS-CoV-2 spike with NL63 fusion …, UniProt P0DTC2 14-1208); assay: ELISA, AUC
CoV2_5P_MERSFP [4] = molecular target: T5, CoV2_5P_MERSFP (SARS-CoV-2 spike with MERS fusion …, UniProt P0DTC2 14-1208); assay: ELISA, AUC
CoV2_5P_NonSFP [5] = molecular target: T6, CoV2_5P_NonSFP (SARS-CoV-2, UniProt P0DTC2 14-1208); assay: ELISA, AUC
T6 construct: also called scrambled fusion peptide spike

CoV2_5P_229EFP [6] = molecular target: T7, CoV2_5P_229EFP (SARS-CoV-2 spike with 229E fusion …, UniProt P0DTC2 14-1208); assay: ELISA, AUC
[7] = molecular target: T2, CoV2_5P prefusion-stabilized spike …; assay: ELISA, AUC
CoV2_5P_MERSFP [8] = molecular target: T5, CoV2_5P_MERSFP; assay: ELISA AUC on 5P spikes with varying fusion peptides
CoV2_5P_229EFP [9] = molecular target: T7, CoV2_5P_229EFP; assay: as above
CoV2_5P_OC43FP [10] = molecular target: T3, CoV2_5P_OC43FP; assay: ELISA, AUC; remark: listed apart in the source
CoV2_5P_NL63FP [11] = molecular target: T4, CoV2_5P_NL63FP; assay: ELISA, AUC; remark: listed apart in the source
CoV2_5P_NonSFP [12] = molecular target: T6, CoV2_5P_NonSFP; assay: ELISA, AUC; remark: listed apart in the source
[13] = molecular target: T2, CoV2_5P prefusion-stabilized spike …; assay: ELISA, AUC; remark: listed apart in the source
CoV2_5P_MERSFP [14] = molecular target: T5, CoV2_5P_MERSFP; assay: ELISA, AUC; remark: listed apart in the source
CoV2_5P_229EFP [15] = molecular target: T7, CoV2_5P_229EFP; assay: ELISA, AUC; remark: listed apart in the source

B1: C2691 (antibody, V domains shown)
VH: QVQLQQSGPELVRPGESVKISCKGSGYTFTDYAMHWVKQSHAKSLEWIGIISFYYDNTKYNQNFKGKATMTVDKSSSTAYMELARLTSEDSAIYFCASQGIHYYGSFAYWGQGTLVTVSA
VL: DIVMTQSQKFMSTSVGDRVSVSCKASQNVGTNLGWYQQKPGQSPKALIYSASYRYSGVPDRFTGSGSGTDFTLTISNVQSEDLAEYFCQQYNSSPLTFGAGTKLELK
notes: also called lineage HV1-67/KV6-15 antibody C2691
CoV2_5P_HKU1FP
  binding result: binds
off-target V5 peptide
  binding result: no binding (tested: dilution 0.05 (no unit))
[1]
  binding result: binds
CoV2_5P_OC43FP [2]
  binding result: binds
CoV2_5P_NL63FP [3]
  binding result: binds
CoV2_5P_MERSFP [4]
  binding result: binds
CoV2_5P_NonSFP [5]
  binding result: no binding
CoV2_5P_229EFP [6]
  binding result: binds

B2: C2891 (antibody, V domains shown)
VH: B1 VH with E10A, H41R, I51F, K59N, N61T, N63K, F95Y
VL: B1 VL with S22T, G30A, A46T, Q89H, S93G, S94Y
CoV2_5P_OC43FP [2]
  binding result: no binding
CoV2_5P_NL63FP [3]
  binding result: no binding
CoV2_5P_MERSFP [4]
  binding result: no binding
CoV2_5P_NonSFP [5]
  binding result: no binding
[7]
  binding result: no binding
CoV2_5P_229EFP [6]
  binding result: no binding

B3: C2866 (antibody, V domains shown)
VH: B1 VH with I51F
VL: B1 VL with S22T, L33V, K45Q, S94Y
notes: Lineage HV1-67/KV6-15
CoV2_5P_NonSFP [5]
  binding result: no binding

B4: C2503 (antibody, V domains shown)
VH: B1 VH with A42S
VL: B1 VL with S22T, L33V, P44H, E85D, S93N, S94Y
notes: Lineage HV1-67/KV6-15
CoV2_5P_NonSFP [5]
  binding result: no binding

B5: C668 (antibody, V domains shown)
VH: EVKLVESGGGLVKPGGSLKLSCLVSGITFSNDAMSWVRQTPEKRLEWVASISSGGRNYYPDSVKGRFTISRDNARNILYLQMSSLRSEDTAMYFCAREGISVWAMDYWGQGTSVTVSS
VL: DIVMTQAAFSNPVTLGTSASISCRSSKSLLHSNGITYLYWYLQRPGQSPQLLIYRMSNLASGVPDRFSSSGSGTDFTLRISRVEAEDVGVYYCAQNLELPPTFGGGTKLEIK
notes: also called lineage HV5-6-5/KV2-109 antibody C668
[1]
  EC50 (read off the curve): ~0.2 µg/mL

B6: C862 (antibody, V domains shown)
VH: EVKLVESGGGLVKPGGSLKLSCAASGITFSSSAMSWVRQTPEKRLEWVASISSGGHTYYLDSMKGRFTISRDNARNILYLQMGSLRSEDTAVYYCAREGIYVWAMDYWGQGTSVTVSS
VL: B5 VL with H31Q, R44K, S69G, V90I
CoV2_5P_MERSFP [8]
  binding result: binds
CoV2_5P_HKU1FP
  binding result: binds
CoV2_5P_229EFP [9]
  binding result: binds
CoV2_5P_OC43FP [10]
  binding result: binds
CoV2_5P_NL63FP [11]
  binding result: binds
CoV2_5P_NonSFP [12]
  binding result: no binding
[13]
  binding result: binds

B7: C1766 (antibody, V domains shown)
VH: B5 VH with L23V, V24A, I27F, N57K, S62N, F94Y, S101Y
VL: B5 VL with K27E, R44K
CoV2_5P_HKU1FP
  binding result: binds
CoV2_5P_OC43FP [10]
  binding result: binds
CoV2_5P_NL63FP [11]
  binding result: binds
CoV2_5P_MERSFP [14]
  binding result: binds
CoV2_5P_NonSFP [12]
  binding result: no binding
[13]
  binding result: binds
CoV2_5P_229EFP [15]
  binding result: binds
